{"source": "patent US9944583B2", "about": "“Methods for ameliorating and preventing central nervous system inflammation” (THE REGENTS OF THE UNIVERSITY OF CALIFORNIA, priority 2007, dated 2018)", "key": {"[1]": {"test_system": "primary neuronal cultures", "test": "DHE oxidation (superoxide and/or hydrogen peroxide production) in primary neuronal cultures exposed to ketamine", "type": "cell-based, mouse", "conditions": "co-exposure with ketamine 0.5 μM 24 h; muscimol 10 μM, C3 20 μM, apocynin 0.5 mM"}, "[2]": {"test_system": "PV-interneurons", "test": "parvalbumin and GAD67 immunoreactivity in PV-interneurons in primary neuronal cultures", "conditions": "co-exposure with ketamine 24 h; muscimol 10 μM, C3, apocynin 0.5 mM"}, "[3]": {"biological_target": "T1, IL-6 receptors (Homo sapiens, UniProt P08887)", "T1 construct": "host or cells: patients with rheumatoid arthritis / juvenile idiopathic arthritis", "T1 sequence (P08887 20-468)": "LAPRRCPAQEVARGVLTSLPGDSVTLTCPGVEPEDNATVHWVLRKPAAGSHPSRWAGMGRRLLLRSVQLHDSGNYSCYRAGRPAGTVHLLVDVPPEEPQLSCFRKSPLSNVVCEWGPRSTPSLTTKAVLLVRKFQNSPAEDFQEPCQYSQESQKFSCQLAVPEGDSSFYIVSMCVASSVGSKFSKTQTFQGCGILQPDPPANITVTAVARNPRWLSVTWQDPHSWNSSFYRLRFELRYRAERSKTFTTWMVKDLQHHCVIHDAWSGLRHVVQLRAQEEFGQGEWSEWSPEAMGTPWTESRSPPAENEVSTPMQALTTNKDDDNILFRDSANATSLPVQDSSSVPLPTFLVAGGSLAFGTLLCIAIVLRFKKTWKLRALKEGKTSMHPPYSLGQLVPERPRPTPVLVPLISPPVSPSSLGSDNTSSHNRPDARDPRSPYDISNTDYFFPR", "conditions": "Phase I and II clinical trials, cited from earlier work"}, "[4]": {"conditions": "in vivo; cited from earlier work"}, "[5]": {"test_system": "NFkB", "test": "IL-6 induced superoxide production (DHE oxidation) in neuronal cultures with NFkB inhibitor", "type": "cell-based", "conditions": "assessed 4 hours later"}}, "note": "Entries after “also recorded” stand apart in the source; their conditions may differ."}
{"compound": "NCc1cc(=O)[nH]o1", "note": "[muscimol]", "values": [{"measurement": "effect on ketamine-mediated increase in oxidized DHE", "setting": "[1]", "result": "prevented; also recorded: complete block"}, {"measurement": "effect on ketamine-mediated loss of parvalbumin and GAD67 immunoreactivity in PV-interneurons", "setting": "[2]", "result": "prevented; also recorded: preservation"}]}
{"compound": "Tocilizumab: therapeutic humanized monoclonal antibody, specific antagonist for IL-6 receptors", "values": [{"measurement": "rheumatoid arthritis disease activity", "setting": "[3]; 2, 4, 5, 8 or 10 mg/kg, dose-dependent", "result": "reduced rheumatoid arthritis disease activity significantly"}, {"measurement": "safety and tolerability", "setting": "[3]", "result": "generally safe and well tolerated"}, {"measurement": "plasma half-life", "setting": "[4]", "result": "long plasma half-life"}]}
{"compound": "H2N-Ala-Ala-Val-Ala-Leu-Leu-Pro-Ala-Val-Leu-Leu-Ala-Leu-Leu-Ala-Pro-Val-Gln-Arg-Lys-Arg-Gn-Lvs-Leu-Met-Pro-OH (H-AAVALLPAVLLALLAPVQRKRQKLMP-OH) [SN50]", "values": [{"measurement": "effect on IL-6 induced superoxide production (DHE oxidation)", "setting": "[5]", "result": "blocks"}]}
{"compound": "CNTO-328: human-mouse chimeric monoclonal antibody (Mab) to IL-6 (Centocor)", "values": [{"measurement": "plasma half-life", "setting": "[4]", "result": "roughly 17 days"}]}
